The results in this text go back to paper PMC8567202, “Phosphoinositide-binding activity of Smad2 is essential for its function in TGF-β signaling” (The Journal of Biological Chemistry, 2021).

Positions count from the first letter of the chain named. Names and notes keep the numbering of the source.

The nature of the test: SPR membrane binding to POPC/POPS vesicles. The settings on record: for binding to POPC/POPS (80:20): RU/RUmax, 100 nM protein. The source says: It has been generally thought that Smad2 and Smad3 are targeted to the activated TGF-β signaling complex by direct interaction with TβRI ([1], [2]) or via SARA ([7]). However, it has been shown that many cytosolic proteins that are targeted to membrane proteins or membrane-anchored signaling complexes have affinity for membrane lipids ([14]), phosphoinositides (PtdInsPs) in particular, and that their membrane recruitment is mediated by coincident lipid–protein and protein–protein interactions ([15], [16]). For most of these proteins, their PtdInsP specificity directs their membrane targeting behaviors: e.g., PI(4,5)P2-specific proteins are recruited to PM where the highest concentration of PI(4,5)P2 is found, whereas PI(3)P-specific proteins are targeted to PI(3)P-rich EEs ([17], [18]). To resolve uncertainty about the functional location of the activated TGF-β signaling complex, we thus explored the possibility that lipid-binding activity of Smad2 may play a role in specific targeting of Smad2 to the active TGF-β receptor complex either at the PM or at EEs. Lipid-binding activity of Smad proteins has not been reported to date. We thus measured the binding of bacterially expressed Smad2 to large unilamellar vesicles (LUVs) containing various lipids by surface plasmon resonance (SPR) analysis ([19], [20]). Lipid selectivity determined by SPR analysis is typically reported as the relative resonance unit (RU) values for different lipids at a given protein concentration ([21], [22]). Although simple and intuitive, this type of analysis can sometimes yield misleading and erroneous results because some proteins show widely different RU values when bound to different lipid surfaces. Thus, a more reliable parameter that represents the fraction of the membrane bound protein molecules at a given protein concentration would be a normalized value of RU/RUmax where RUmax indicates the maximal RU value when a given lipid surface is saturated with the protein molecules. We thus estimated RUmax for different lipid species by employing the highest protein concentration experimentally feasible (e.g., 1 μM) and determined RU/RUmax for different lipids at the protein concentration that allows robust comparison (e.g., 100 nM). Once the lipid selectivity has been determined by this semiquantitative approach, we then rigorously determined and compared Kd values for selected lipids for more accurate quantitative determination of lipid selectivity.
Figure 1 Membrane-binding properties of Smad2 FL protein and MH2 domain determined by SPR analysis.A, PtdInsP selectivity of Smad2-FL determined using POPC/POPS/PtdInsP (77:20:3 in mole ratio) LUVs coated on the L1 sensor chip. The protein concentration was 100 nM. PIP3 indicates PI(3,4,5)P3. B, determination of Kd for binding of Smad2 FL to different LUVs. The protein concentration was varied from 0 to 500 nM. C, PI(4,5)P2 concentration dependence of membrane binding of Smad2-FL determined using POPC/POPS/PI(4,5)P2 (77-x:20:x, x = 0–5 mol%) LUVs. The protein concentration was 100 nM. D, PtdInsP selectivity of the Smad2 MH2 domain determined using POPC/POPS/PtdInsP (77:20:3 in mole ratio) LUVs. The protein concentration was 100 nM. Normalized RU values (RU/RUmax) were used for all figures but (C) for more accurate determination of PtdInsP selectivity. RUmax values determined for different vesicles at 1 μM Smad2 were: 280 ± 20 for POPC/POPS/PI(4,5)P2 (77:20:3), 370 ± 10 for POPC/POPS/PI(3,4)P2 (77:20:3), 400 ± 15 for POPC/POPS/PI(3,4,5)P3 (or PIP3) (77:20:3), 400 ± 20 for POPC/POPS/PI(3)P (77:20:3), and 380 ± 20 for POPC/POPS (80:20). Only the association phases of the sensorgrams are shown and used for further analysis. Each set of sensorgrams shown in A and D are representatives of >5 independent measurements. Data points shown in B and C are the average ±S.D. values from triplicate measurements. […]

B1: Smad2-W422A: W422A mutant of full-length Smad2; specific PI(4,5)P2 binding-compromised (protein)
chain: MSSILPFTPPVVKRLLGWKKSAGGSGGAGGGEQNGQEEKWCEKAVKSLVKKLKKTGRLDELEKAITTQNCNTKCVTIPSTCSEIWGLSTANTVDQWDTTGLYSFSEQTRSLDGRLQVSHRKGLPHVIYCRLWRWPDLHSHHELKAIENCEYAFNLKKDEVCVNPYHYQRVETPVLPPVLVPRHTEILTELPPLDDYTHSIPENTNFPAGIEPQSNYIPETPPPGYISEDGETSDQQLNQSMDTGSPAELSPTTLSPVNHSLDLQPVTYSEPAFWCSIAYYELNQRVGETFHASQPSLTVDGFTDPSNSERFCLGLLSNVNRNATVEMTRRHIGRGVRLYYIGGEVFAECLSDSAIFVQSPNCNQRYGWHPATVCKIPPGCNLKIFNNQEFAALLAQSVNQGFEAVYQLTRMCTIRMSFVKGAGAEYRRQTVTSTPCWIELHLNGPLQWLDKVLTQMGSPSVRCSSMS
modifications: left off: His6, N-terminal, state not stated
Consider B1, for which the “binding to POPC/POPS (80:20)” value (SPR) was “much less effects on binding”.

B2: Smad2-K420A: K420A mutant of full-length Smad2; predominantly TβRI binding-compromised (protein)
chain: B1 chain with K420A, A422W
modifications: left off: His6, N-terminal, state not stated
Regarding B2, where the note is “SPR”, the “binding to POPC/POPS (80:20)” value was “modestly and similarly reduced binding to both vesicles”.

B3: Smad2 WT: bacterially expressed full-length Smad2 wild-type (protein)
chain: B1 chain with A422W
modifications: left off: His6, N-terminal, state not stated
notes: bacterially expressed full-length Smad2 wild-type
The molecule B3 displayed an RUmax (POPC/POPS (80:20), 1 μM Smad2) of 380 ± 20. Also, the Kd (SPR, L1 chip, 23 °C, 20 mM Tris, pH 7.4, 0.16 M NaCl, POPC/POPS (80:20), average ±S.D., n = 3, read-out: Kd for lipid binding, PC/PS) was determined as 560 ± 150 nM.

B4: Smad2- R427A/R428A: double mutant of full-length Smad2; PI(4,5)P2 and TβRI binding-compromised (protein)
chain: B1 chain with A422W, R427A, R428A
modifications: left off: His6, N-terminal, state not stated
As to B4, where the note is “SPR”, the “binding to POPC/POPS (80:20)” value was “much less effects on binding”.

B5: Smad2-Y426A: Y426A mutant of full-length Smad2; specific PI(4,5)P2 binding-compromised (protein)
chain: B1 chain with A422W, Y426A
modifications: left off: His6, N-terminal, state not stated
As to B5, the “binding to POPC/POPS (80:20)” value (SPR) is listed as “much less effects on binding”.
